This experiment deals with recombinant human HER2 extracellular domain (human) (UniProt P04626). The experiment can be described thus: SPR (Biacore 2000), HER2-ECD immobilised, 1:1 model, 25 C. Background: In SPR one partner is held on a chip, and binding of the other changes the refractive index at the surface.

pKd: −log10 of the molar value.

A word on the pKd: it is −log10 of the Kd, conventionally taken in molar units. As usually defined, the koff is the rate constant with which the complex falls apart. His6-(ZHER2 A)2 (designed binder): the negative-log Kd (pKd) is 8.52 and the koff was found to be 0.00076 s⁻¹.

The record behind these values is patent US20100048868A1.
